Assay results from paper PMC11867022.

Test system: S9.6 antibody (anti-DNA-RNA hybrid) (mouse)
Assay: SPR
Settings: single-cycle kinetics, pH 7.0, SPR: 10 mM HEPES pH 7.0, 15 mM MgCl2, 80 mM NaCl, S9.6 on CM5 chip, EMSA: 200 nM nucleic acid, 80 ug/mL S9.6, 30 min room temperature, 6% PAGE in 0.5X TBE

Sequence | Kd [nM] | Kd (ka 5.99e5 1/Ms, kd 1.74e-4 1/s) [nM]
AAGAAAAGAGAAGAAGAGAACACCTTCTCTTCTTCTCTTTTCTTAGACCCCTATCACGATTAGCATTAA / UUAAUGCUAAUCGUGAUAGGGGU [Switch B (70% TAT)/miR-155 hybrid] | 0.144 | 
AGTGAATTCTACCAGTGCCATAGAGGAGAGGAGAGGAGGGGAGGTTTACCTCCCCTCCTCTCCTCTCCCTTTGCCTCTCCTCTCCTCCCCTCCGT / UAUGGCACUGGUAGAAUUCACU [Switch A (30% TAT)/miR-183 hybrid] |  | 0.291
